For one substance, reduction of TNFα release by gmMφ co-cultured 1:5 with cytokine activated T cells (Tck) for 20 h, with ICs (50 µg/ml) results are on record in article PMC4207781.

The target in the test is Fc gamma receptor IIb (FcγRIIb) on GM-CSF macrophages (human (endogenous in monocyte-derived macrophages)) (UniProt P31994).
UniProt P31994, sequence (P31994 43-217): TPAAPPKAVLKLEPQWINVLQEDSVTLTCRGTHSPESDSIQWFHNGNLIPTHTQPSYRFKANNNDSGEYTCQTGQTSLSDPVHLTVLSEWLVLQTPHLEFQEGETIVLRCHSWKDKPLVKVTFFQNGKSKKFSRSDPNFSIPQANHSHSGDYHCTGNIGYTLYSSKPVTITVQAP

As to “heat-aggregated immune complexes (IC) of human IgG”, the reduction of TNFα release by gmMφ co-cultured 1:5 with cytokine activated T cells (Tck) for 20 h, with ICs (50 µg/ml) worked out at 50%.
